Experimental data published in US20220098287A1 (Teva, published 2022).
Where no end group is shown, it is not given here.

Target: T1, antibody G1 Fab fragment
T1 construct: also called TEV-48125; fremanezumab
Assay: SPR (Biacore) competition: 50 nM G1 Fab pre-incubated 1 h with 10 µM competing peptide, then flowed over N-biotinylated human α-CGRP on SA chip
Source text: Y axis represents percentage of binding blocked by the presence of the competing peptide compared with the binding in the absence of the competing peptide.
All these peptides are amidated at the C-terminus.

T1 sequence (VH, as listed by the source, chain 1 of 2): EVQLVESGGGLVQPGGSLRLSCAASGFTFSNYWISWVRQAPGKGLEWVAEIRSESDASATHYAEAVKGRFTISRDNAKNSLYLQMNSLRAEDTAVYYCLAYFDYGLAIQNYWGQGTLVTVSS
T1 sequence (VL, as listed by the source, chain 2 of 2): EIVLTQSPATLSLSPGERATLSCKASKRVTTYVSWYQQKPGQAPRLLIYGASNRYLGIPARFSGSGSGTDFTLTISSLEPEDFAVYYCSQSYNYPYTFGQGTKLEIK

B1: 19-36 CONH2 (peptide)
peptide: SGGVVKNNFVPTNVGSKA-NH2
notes: also called peptide fragment 19-36 (amidated at the C-terminus) of human α-CGRP
binding result: no binding (tested: 10 µM)
